Experiments:
Human c-Met-Flis-Fc ECD [1] = biological target: T1, Human c-Met-Flis-Fc ECD (human); experiment: ELISA, coated ECD-Fc, antibody 100000.000 ng/mL
T1 construct: also called human c-Met extracellular domain (ECD)-Fc-Flis fusion; Human cMet-ECD-Fc-Flis
Experimental: (§1) Wells of 96-well EIA/RIA high binding plates (Costar, #2592) are coated with 100 μL of 1 μg/mL human c-Met extracellular domain (ECD)-Fc-Flis fusion (SEQ ID NO:72), RON-ECD-Fc (R&D Systems, #1947-MS), or PlexinA2-ECD-Fc (Abnova, Taipei, Taiwan #H00005362-P01) in coating buffer (BioFX Labs, # COAT-1000-01) overnight at 4° C. […] After the plates are washed, 100 μL/well of substrate solution (BioFx, #TMBW-1000-01) are added and the plates are incubated for 10 min. at room temperature. 100 μL/well of stop solution (BioFx, # LSTP-1000-01) are added to stop the reaction. The colorimetric signals are developed and read at 450 nm using a SpectraMax 190 plate reader (Molecular Devices, Sunnyvale, Calif.). c-Met antibody binding to c-Met, RON and PlexinA2 ECDs is proportional to color signal production.

RON-ECD-Fc [2] = biological target: T2, RON-ECD-Fc (human, UniProt Q04912 25-957); experiment: ELISA, coated ECD-Fc, antibody 100000.000 ng/mL
T2 construct: extracellular domain; Bought reagent; not shown: Fc part of the bought fusion
T2 sequence (looked up): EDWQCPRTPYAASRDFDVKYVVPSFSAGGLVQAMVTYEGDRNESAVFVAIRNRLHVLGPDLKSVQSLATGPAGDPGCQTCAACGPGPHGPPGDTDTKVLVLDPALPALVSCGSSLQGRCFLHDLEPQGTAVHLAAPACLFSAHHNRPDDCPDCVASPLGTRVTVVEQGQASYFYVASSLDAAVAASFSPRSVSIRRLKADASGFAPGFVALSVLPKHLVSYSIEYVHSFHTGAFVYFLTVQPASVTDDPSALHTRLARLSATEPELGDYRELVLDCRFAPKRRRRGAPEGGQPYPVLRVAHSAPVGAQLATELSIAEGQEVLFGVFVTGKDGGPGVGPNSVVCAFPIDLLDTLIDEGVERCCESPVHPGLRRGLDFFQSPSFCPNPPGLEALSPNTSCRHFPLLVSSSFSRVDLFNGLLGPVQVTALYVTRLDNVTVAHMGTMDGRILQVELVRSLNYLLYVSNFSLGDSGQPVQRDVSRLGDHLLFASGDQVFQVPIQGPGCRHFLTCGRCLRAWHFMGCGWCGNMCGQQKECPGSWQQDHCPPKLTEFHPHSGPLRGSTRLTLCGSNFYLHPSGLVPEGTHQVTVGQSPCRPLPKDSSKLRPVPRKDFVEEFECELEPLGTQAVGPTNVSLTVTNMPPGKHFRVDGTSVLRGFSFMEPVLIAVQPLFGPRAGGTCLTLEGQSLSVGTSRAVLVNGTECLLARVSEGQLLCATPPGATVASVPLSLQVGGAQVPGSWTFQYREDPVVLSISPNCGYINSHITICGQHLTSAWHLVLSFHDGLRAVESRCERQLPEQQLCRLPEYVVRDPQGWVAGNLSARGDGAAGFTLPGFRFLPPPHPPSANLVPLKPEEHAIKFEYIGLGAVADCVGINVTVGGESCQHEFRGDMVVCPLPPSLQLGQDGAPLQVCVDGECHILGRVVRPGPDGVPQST
Experimental: as §1

PlexinA2-ECD-Fc [3] = biological target: T3, PlexinA2-ECD-Fc (human, UniProt O75051 35-1237); experiment: ELISA, coated ECD-Fc, antibody 100000.000 ng/mL
T3 construct: extracellular domain; Bought reagent
T3 sequence (looked up): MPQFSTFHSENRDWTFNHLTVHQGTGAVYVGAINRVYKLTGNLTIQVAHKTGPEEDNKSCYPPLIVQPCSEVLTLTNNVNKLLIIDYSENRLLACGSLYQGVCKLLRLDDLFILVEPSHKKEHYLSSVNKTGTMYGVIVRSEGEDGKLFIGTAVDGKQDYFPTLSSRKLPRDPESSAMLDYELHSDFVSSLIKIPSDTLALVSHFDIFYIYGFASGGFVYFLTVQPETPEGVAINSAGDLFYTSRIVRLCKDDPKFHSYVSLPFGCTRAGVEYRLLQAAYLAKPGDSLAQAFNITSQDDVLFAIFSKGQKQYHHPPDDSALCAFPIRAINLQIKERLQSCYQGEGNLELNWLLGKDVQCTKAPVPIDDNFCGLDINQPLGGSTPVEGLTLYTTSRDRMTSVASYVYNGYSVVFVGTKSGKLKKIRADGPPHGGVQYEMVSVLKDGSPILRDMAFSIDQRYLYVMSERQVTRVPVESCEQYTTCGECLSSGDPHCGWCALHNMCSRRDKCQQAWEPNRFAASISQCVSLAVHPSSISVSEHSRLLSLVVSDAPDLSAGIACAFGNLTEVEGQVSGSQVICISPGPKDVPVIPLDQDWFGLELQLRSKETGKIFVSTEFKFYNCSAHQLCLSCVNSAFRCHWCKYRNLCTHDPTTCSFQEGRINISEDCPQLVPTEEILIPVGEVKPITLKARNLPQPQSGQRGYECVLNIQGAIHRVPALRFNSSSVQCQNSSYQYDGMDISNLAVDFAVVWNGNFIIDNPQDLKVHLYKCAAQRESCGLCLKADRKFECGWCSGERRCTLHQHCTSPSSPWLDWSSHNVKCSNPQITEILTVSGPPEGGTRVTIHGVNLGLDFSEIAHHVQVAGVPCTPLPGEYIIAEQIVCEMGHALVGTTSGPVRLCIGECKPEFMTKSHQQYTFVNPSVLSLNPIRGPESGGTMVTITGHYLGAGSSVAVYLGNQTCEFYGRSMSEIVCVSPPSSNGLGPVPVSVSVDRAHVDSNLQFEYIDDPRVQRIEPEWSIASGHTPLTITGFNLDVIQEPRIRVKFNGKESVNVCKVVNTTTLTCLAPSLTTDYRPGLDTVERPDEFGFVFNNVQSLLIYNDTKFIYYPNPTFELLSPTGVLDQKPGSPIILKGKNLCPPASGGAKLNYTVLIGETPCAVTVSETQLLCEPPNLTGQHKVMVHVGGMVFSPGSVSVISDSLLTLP
Experimental: as §1

RON-ECD-Fc [4] = biological target: T2, RON-ECD-Fc; experiment: ELISA, coated ECD-Fc, antibody 0.357 ng/mL
Human c-Met-Flis-Fc ECD [5] = biological target: T1, Human c-Met-Flis-Fc ECD; experiment: ELISA, coated ECD-Fc, antibody 0.002 ng/mL
Experimental: as §1

RON-ECD-Fc [6] = biological target: T2, RON-ECD-Fc; experiment: ELISA, coated ECD-Fc, antibody 0.002 ng/mL
Experimental: as §1

PlexinA2-ECD-Fc [7] = biological target: T3, PlexinA2-ECD-Fc; experiment: ELISA, coated ECD-Fc, antibody 0.002 ng/mL
Experimental: as §1

T1 sequence (chain, as listed by the source limits assumed): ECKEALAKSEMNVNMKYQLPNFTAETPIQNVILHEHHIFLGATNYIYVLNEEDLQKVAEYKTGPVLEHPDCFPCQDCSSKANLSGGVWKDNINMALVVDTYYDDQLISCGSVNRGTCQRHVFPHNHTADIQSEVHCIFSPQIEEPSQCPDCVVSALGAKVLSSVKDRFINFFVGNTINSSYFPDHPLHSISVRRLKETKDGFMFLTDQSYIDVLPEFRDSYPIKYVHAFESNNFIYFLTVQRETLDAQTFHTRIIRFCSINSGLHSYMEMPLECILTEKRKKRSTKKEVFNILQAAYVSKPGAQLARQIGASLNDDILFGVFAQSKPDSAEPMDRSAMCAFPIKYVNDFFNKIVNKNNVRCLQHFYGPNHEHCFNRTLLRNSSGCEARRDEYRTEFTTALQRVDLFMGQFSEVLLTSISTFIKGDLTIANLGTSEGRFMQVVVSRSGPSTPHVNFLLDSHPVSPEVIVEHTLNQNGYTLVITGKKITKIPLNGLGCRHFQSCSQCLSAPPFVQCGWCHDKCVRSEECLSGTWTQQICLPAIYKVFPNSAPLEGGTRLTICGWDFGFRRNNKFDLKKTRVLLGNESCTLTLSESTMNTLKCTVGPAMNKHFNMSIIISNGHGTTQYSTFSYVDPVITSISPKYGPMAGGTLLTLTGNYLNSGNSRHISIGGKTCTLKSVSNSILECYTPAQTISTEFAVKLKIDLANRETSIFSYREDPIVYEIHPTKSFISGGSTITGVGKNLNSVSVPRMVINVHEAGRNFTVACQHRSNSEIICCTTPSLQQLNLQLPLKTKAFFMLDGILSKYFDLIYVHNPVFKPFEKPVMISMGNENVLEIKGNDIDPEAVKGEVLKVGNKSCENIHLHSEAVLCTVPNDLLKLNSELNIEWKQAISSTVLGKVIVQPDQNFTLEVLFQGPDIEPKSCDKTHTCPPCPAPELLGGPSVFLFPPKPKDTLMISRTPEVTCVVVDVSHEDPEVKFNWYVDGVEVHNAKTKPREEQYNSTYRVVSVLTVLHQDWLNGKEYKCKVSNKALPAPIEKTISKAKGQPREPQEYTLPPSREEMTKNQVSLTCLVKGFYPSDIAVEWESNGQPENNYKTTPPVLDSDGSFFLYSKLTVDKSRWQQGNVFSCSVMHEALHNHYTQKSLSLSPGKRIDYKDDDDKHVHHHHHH

B1: C8-6 (antibody, human IgG2, kappa, V domains shown)
VH: QVQLVQSGAEVKKPGASVKVSCKASGYTFTDYYMHWVRQAPGQGLEWMGRVNPNRGGTTYNQKFEGRVTMTTDTSTSTAYMELRSLRSDDTAVYYCARTNWLDYWGQGTTVTVSS
VL: DIQMTQSPSSLSASVGDRVTITCSVSSSVSSIYLHWYQQKPGKAPKLLIYSTSNLASGVPSRFSGSGSGTDFTLTISSLQPEDFATYYCIQYSGYPLTFGGGTKVEIKR
notes: Called IgG4, kappa; also called Mab C8-6
Average A450 nm (Human c-Met-Flis-Fc ECD [1]): 4 A450 nm
Average A450 nm (RON-ECD-Fc [2]): 0.17 A450 nm
Average A450 nm (PlexinA2-ECD-Fc [3]): 0.171 A450 nm
Average A450 nm (RON-ECD-Fc [4]): 0.08 A450 nm
Average A450 nm (Human c-Met-Flis-Fc ECD [5]): 0.326 A450 nm
Average A450 nm (RON-ECD-Fc [6]): 0.106 A450 nm
Average A450 nm (PlexinA2-ECD-Fc [7]): 0.099 A450 nm
